Laboratory results published in article PMC13462943.

Columns and labels:
[1] = target: T1, G9a methyltransferase domain (aa residues 913-1193), Del 1163-4, Q96KQ7-1; test: native mass spectrometry (nESI-MS); conditions: chain shown with the change;; read off a plot
T1 chain: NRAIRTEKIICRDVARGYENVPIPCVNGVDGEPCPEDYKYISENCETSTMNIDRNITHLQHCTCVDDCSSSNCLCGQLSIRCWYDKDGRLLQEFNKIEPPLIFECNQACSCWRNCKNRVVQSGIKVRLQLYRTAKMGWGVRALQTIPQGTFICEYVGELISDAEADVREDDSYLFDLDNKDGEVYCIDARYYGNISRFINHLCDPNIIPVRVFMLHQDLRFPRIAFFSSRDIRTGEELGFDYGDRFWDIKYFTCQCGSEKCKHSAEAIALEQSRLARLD

[2] = target: T2, N-terminal histone H3 peptide (amino acid residues 1-20), P68431; test: native mass spectrometry; conditions: chain shown with the change, protein and substrate concentrations 5 µM
[3] = target: T2, N-terminal histone H3 peptide (amino …); test: differential scanning fluorimetry; conditions: chain shown with the change; 500 µM histone H3 peptide; parent: est. 4.4; read off a plot

B1: G9a methyltransferase domain (aa residues 913-1193), wild type, Q96KQ7-1 S1163del; K1164del (protein)
chain: T1 chain
ratio to parent [1]: 0.58
other: relative abundance, 2x peptide bound ([2]; parent: 24): < 1
other: relative abundance, free protein ([2]; parent: 30): 88
other: relative abundance, 1x peptide bound ([2]; parent: 46): 11
other: ΔTm upon substrate addition [3]: 2.3 °C
